Stoichiometry N data for one substance are collected here from doi:10.1101/2022.01.14.476343.

In general, stoichiometry N refers to the number of molecules, sites or subunits per partner or assembly.

For this assay, the target named is Tpp49Aa1 pesticidal protein from Lysinibacillus sphaericus (Lysinibacillus sphaericus). In words: crystal structure.

Substance “Tpp49Aa1 pesticidal protein from Lysinibacillus sphaericus (natural protein)” displayed a stoichiometry N of 2.
